Source: patent US20230265123A1, “PEPTIDES AND FORMULATIONS FOR CANCER TREATMENT” (Peptinovo Biopharma, Inc., priority 2020, published 2023)
Square brackets hold non-standard residues; d marks the D form. Ends that are not written are not given here. Aib = CC(C)(N)C(=O)O

Biological target: T1, human SR-BI (Homo sapiens, UniProt Q8WTV0)
T1 construct: expressed in transfected cells; host or cells: BHK(SR-BI) cells obtained from the NIH, GeneSwitch System (Invitrogen), induced with 10 nM mifepristone
T1 sequence (Q8WTV0 1-509 isoform Q8WTV0-2): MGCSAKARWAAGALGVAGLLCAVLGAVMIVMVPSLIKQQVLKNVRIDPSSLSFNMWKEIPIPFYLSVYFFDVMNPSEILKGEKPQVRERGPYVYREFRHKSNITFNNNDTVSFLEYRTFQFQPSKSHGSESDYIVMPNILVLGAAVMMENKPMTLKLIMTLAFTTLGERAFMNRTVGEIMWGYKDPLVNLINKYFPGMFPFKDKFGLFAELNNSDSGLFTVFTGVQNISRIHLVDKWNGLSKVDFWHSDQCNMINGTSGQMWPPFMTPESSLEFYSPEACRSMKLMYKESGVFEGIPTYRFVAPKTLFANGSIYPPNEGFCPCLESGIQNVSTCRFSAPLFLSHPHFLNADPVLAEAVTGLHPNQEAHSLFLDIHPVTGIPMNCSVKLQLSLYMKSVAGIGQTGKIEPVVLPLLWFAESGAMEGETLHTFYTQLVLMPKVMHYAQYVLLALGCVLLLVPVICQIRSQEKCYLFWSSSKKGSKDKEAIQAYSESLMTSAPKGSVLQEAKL
Assay: DiI uptake from DiI-labeled PALM by BHK(SR-BI) cells, uninduced or mifepristone-induced (SR-BI selectivity)
Format: cell-based
Details: for Induced Uptake: BHK(SR-BI) cells induced with 10 nM mifepristone; for Induced Uptake / Basal Uptake: DiI-labeled PALM 32 μg peptide/ml or DiI-labeled HDL 19 μg protein/ml, 4 hours, ± SEM (n = 4); for SR-BI Dependent Uptake: Increase over basal uptake; for Basal Uptake: uninduced BHK(SR-BI) cells
Protocol: The procedure essentially followed that described in Example 5. A 40 μl aliquot of 10 mM or peptide was combined with 56 μl of 20 mM POPC, 24 μl 20 mM SM(egg) and 16 μl 2.5 mM DiI in a small glass vial. The peptide and lipid stock solutions were prepared in 80% TBA/20% water. The DiI stock was prepared in 92% TBA/8% water. The solution was lyophilized, and the resultant cake was rehydrated by addition of 0.2 ml of Dulbeco's phosphate buffered saline. The solution was briefly swirled, water bath sonicated (for approx. 15 sec.) and placed in a 50° C. heating block for 20 minutes.
SR-BI interaction studies are done with BHK(SR-BI) cells obtained from the NIH. The cells were stably transfected with an inducible human SR-BI gene by means of the GeneSwitch™ System (Invitrogen). The cells were plated (96-well plate) (8000 cells/well) in growth medium (Dulbeco's modified Eagle medium containing 10% fetal bovine serum) containing 200 ug/ml each of zeocin and hygromycin. After 24 hours incubation, the growth medium was removed and replaced with 0.2% bovine serum albumin in Dulbeco's modified Eagle medium. The medium of cells to be induced for SR-BI expression also contained 10 nM mifepristone, added from a DMSO stock solution. DMSO alone was added to the medium of uninduced cells. The induction medium was removed after 24 hours incubation and replaced with medium containing DiI-labeled PALM (32 μg peptide/ml) or DiI-labeled HDL (19 μg protein/ml) (Kalen Biomedical, Montgomery Village, Md.). The test media were prepared by diluting an aliquot of Di-I-labeled PALM (Example 6) or the DiI-labeled HDL in 0.2% bovine serum albumin in Dulbeco's modified Eagle medium. The solutions were passed through 0.2 μm pore size, polyethersulfone, sterilization filters before use. The cells were incubated in test media for 4 hours. Next, the cells were washed 3 times with 0.1% albumin in Dulbeco's phosphate buffered saline (with calcium and magnesium). The last wash was replaced with 200 ul/well of t-butanol/water (95%/5%). The covered plate was left to stand at room temperature for 30 min with occasional shaking. The fluorescence in each well was detected at 520 nm excitation and 580 nm emission with a 550 nm cutoff filter on a […] Gemini fluorescence plate reader, the results are shown in Table 6 and FIG. 7.

DVFQKLVELFNQLLEKWKQV [SEQ ID NO: 2, amphiphilic peptide used to form PALM]
Induced Uptake: 12 ± 2 (DiI in cells)/(Total DiI added) × 10^−3 | SR-BI Dependent Uptake: 35% | Basal Uptake: 9 ± 2 (DiI in cells)/(Total DiI added) × 10^−3

DVFQKL{Aib}ELFKELLEKWKQV (DVFQKL[Aib]ELFKELLEKWKQV) [SEQ ID NO: 8, amphiphilic peptide used to form PALM]
Induced Uptake: 20 ± 9 (DiI in cells)/(Total DiI added) × 10^−3 | SR-BI Dependent Uptake: 14% | Basal Uptake: 17 ± 8 (DiI in cells)/(Total DiI added) × 10^−3

DVFQKL{Aib}ELFNQLLEKWKQV (DVFQKL[Aib]ELFNQLLEKWKQV) [SEQ ID NO: 1, amphiphilic alpha-helical peptide used to form PALM]
Induced Uptake: 10 ± 1 (DiI in cells)/(Total DiI added) × 10^−3 | SR-BI Dependent Uptake: 53% | Basal Uptake: 6 ± 1 (DiI in cells)/(Total DiI added) × 10^−3

DVFQKL{Aib}ELFNQL{Aib}EKFKQV (DVFQKL[Aib]ELFNQL[Aib]EKFKQV) [SEQ ID NO: 6, amphiphilic peptide used to form PALM]
Induced Uptake: 27 ± 3 (DiI in cells)/(Total DiI added) × 10^−3 | SR-BI Dependent Uptake: 82% | Basal Uptake: 15 ± 1 (DiI in cells)/(Total DiI added) × 10^−3

DVFQKL{Aib}ELFNQL{Aib}EKWKQV (DVFQKL[Aib]ELFNQL[Aib]EKWKQV) [SEQ ID NO: 5, amphiphilic peptide used to form PALM]
Induced Uptake: 16 ± 2 (DiI in cells)/(Total DiI added) × 10^−3 | SR-BI Dependent Uptake: 104% | Basal Uptake: 8 ± 1 (DiI in cells)/(Total DiI added) × 10^−3

DVFQKL{Aib}ELFQNL{Aib}EKWKQV (DVFQKL[Aib]ELFQNL[Aib]EKWKQV) [SEQ ID NO: 10, amphiphilic peptide used to form PALM]
Induced Uptake: 16 ± 2 (DiI in cells)/(Total DiI added) × 10^−3 | SR-BI Dependent Uptake: 78% | Basal Uptake: 9 ± 1 (DiI in cells)/(Total DiI added) × 10^−3

DVFQKL{Aib}ELFQQL{Aib}EKWKQV (DVFQKL[Aib]ELFQQL[Aib]EKWKQV) [SEQ ID NO: 9, amphiphilic peptide used to form PALM]
Induced Uptake: 11 ± 2 (DiI in cells)/(Total DiI added) × 10^−3 | SR-BI Dependent Uptake: 72% | Basal Uptake: 6 ± 1 (DiI in cells)/(Total DiI added) × 10^−3

DV{Aib}QKFLELFNQLLEKWKQV (DV[Aib]QKFLELFNQLLEKWKQV) [SEQ ID NO: 4, amphiphilic peptide used to form PALM]
Induced Uptake: 10 ± 1 (DiI in cells)/(Total DiI added) × 10^−3 | SR-BI Dependent Uptake: 66% | Basal Uptake: 6 ± 1 (DiI in cells)/(Total DiI added) × 10^−3

DV{Aib}QKLFELFNQLLEKWKQV (DV[Aib]QKLFELFNQLLEKWKQV) [SEQ ID NO: 3, amphiphilic peptide used to form PALM]
Induced Uptake: 11 ± 2 (DiI in cells)/(Total DiI added) × 10^−3 | SR-BI Dependent Uptake: 79% | Basal Uptake: 6 ± 1 (DiI in cells)/(Total DiI added) × 10^−3

D{Aib}FQKL{Aib}ELFNQL{Aib}EKWKQV (D[Aib]FQKL[Aib]ELFNQL[Aib]EKWKQV) [SEQ ID NO: 7, amphiphilic peptide used to form PALM]
Induced Uptake: 18 ± 2 (DiI in cells)/(Total DiI added) × 10^−3 | SR-BI Dependent Uptake: 137% | Basal Uptake: 8 ± 1 (DiI in cells)/(Total DiI added) × 10^−3

PVLDLFRELLNELLEALKQKLK [SEQ ID NO: 11, reference compound]
Induced Uptake: 5 ± 1 (DiI in cells)/(Total DiI added) × 10^−3 | SR-BI Dependent Uptake: 55% | Basal Uptake: 3 ± 1 (DiI in cells)/(Total DiI added) × 10^−3
